In article PMC4627230, “Identification of TAX2 peptide as a new unpredicted anti-cancer agent” (Oncotarget, 2015):

Target: T1, CD36, endogenous in HUVECs (human (endogenous in HUVECs), UniProt P16671 1-472)
T1 construct: CD36, endogenous in HUVECs; immunoprecipitated with anti-CD36; also called CD36-containing complexes; source: endogenous, HUVEC whole cell extracts
Experiment: co-IP; antibody (anti-CD47 B6H12, anti-CD36, anti-FGF2, anti-VEGF, anti-β1 integrin, anti-LRP1 heavy chain) covalently coupled to resin (Pierce Co-IP kit), incubated with whole HUVEC protein lysate (or conditioned media) overnight at 4°C, no cross-linker; cells treated with 100 μM TAX2 or control peptide; for VEGFR2 also 30 ng/mL VEGF for 5 min; immunoblot
Conditions: partners not purified

T1 sequence (P16671 whole entry): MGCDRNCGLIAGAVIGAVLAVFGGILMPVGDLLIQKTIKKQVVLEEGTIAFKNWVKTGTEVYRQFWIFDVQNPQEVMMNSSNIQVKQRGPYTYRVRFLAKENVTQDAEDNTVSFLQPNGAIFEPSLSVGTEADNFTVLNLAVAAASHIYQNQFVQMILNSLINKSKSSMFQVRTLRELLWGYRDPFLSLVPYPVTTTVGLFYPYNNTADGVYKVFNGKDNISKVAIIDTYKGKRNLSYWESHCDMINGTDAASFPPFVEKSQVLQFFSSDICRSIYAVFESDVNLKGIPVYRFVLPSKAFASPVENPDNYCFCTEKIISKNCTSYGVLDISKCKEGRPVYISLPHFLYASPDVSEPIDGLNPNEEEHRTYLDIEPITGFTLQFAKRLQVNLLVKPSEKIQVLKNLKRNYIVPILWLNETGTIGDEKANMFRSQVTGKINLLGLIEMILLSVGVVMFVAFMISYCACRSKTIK

fold increase of co-immunoprecipitated TSP-1 with TAX2 (100 μM) against control: 3 fold
B1: thrombospondin-1 (TSP-1), endogenous in HUVECs (natural protein)
chain: not shown
notes: thrombospondin-1, endogenous in human umbilical vein endothelial cells; detected by anti-TSP-1 (clone A6.1); source: endogenous, HUVEC protein lysate or conditioned media
